Laboratory results from PMC8565784.

Legend:
[1] = SDS-PAGE-Western blot of VLP Env; conditions: glycan gained; control: Q23 SOS gp160ΔCT parent
[2] = pQC-Fluc PV neutralisation; conditions: glycan gained; control: Q23 SOS gp160ΔCT parent

Question: Which results are given for Q23 Env: D49N?
Answer: expression_or_secretion [1]: increases; other: neutralisation sensitivity [2]: increases

Question: What does the source list for Q23 Env: D49N+D674N?
Answer: expression_or_secretion [1]: no change; other: neutralisation sensitivity [2]: increases

Question: What does the source list for Q23 Env: D674N?
Answer: expression_or_secretion [1]: decreases; other: neutralisation sensitivity [2]: increases
